Source: patent US20180057581A1 (MorphoSys, published 2018)

How the values were obtained:
human M-CSF [1] = molecular target: T1, human M-CSF (human, UniProt P09603 33-255, limits assumed); experiment: ELISA
T1 construct: also called M-CSF (human); CSF-1
T1 sequence: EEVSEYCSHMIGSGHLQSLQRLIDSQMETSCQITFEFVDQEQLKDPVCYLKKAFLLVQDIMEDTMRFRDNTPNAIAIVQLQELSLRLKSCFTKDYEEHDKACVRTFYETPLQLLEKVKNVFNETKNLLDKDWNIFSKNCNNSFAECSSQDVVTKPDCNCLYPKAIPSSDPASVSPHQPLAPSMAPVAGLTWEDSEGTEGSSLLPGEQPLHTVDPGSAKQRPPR
Procedure: (§1) BSA was used as a negative control substrate.
(§2) After blocking of plates with 5% skim milk powder in PBS, Fab-containing E. coli lysates, IgG-containing cell culture supernatants or purified IgG or Fab proteins were added. Binding of Fabs or IgGs was detected by F(ab)₂ specific goat anti-human IgG conjugated to alkaline phosphatase (Dianova Cat# 109-055-097; diluted 1:5000) using Attophos fluorescence substrate (Roche, #11681982001). Fluorescence emission at 535 nm was recorded with excitation at 430 nm.

[2] = molecular target: T2, Recombinant cynomolgus monkey sgM-CSF (cynomolgus (Macaca fascicularis), UniProt P09603 33-255 (human entry), limits assumed); experiment: ELISA
T2 construct: used also where only 'cynomolgus M-CSF' is printed (ELISA result, SET); also called cynomolgus sgM-CSF; cyno sgM-CSF
T2 chain: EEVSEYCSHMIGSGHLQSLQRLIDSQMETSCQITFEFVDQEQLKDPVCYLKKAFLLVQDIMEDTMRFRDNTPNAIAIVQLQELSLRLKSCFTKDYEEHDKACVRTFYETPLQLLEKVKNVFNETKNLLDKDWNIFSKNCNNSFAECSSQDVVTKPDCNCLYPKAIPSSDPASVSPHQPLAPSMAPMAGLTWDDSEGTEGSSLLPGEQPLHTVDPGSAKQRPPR
Procedure: as §1, §2

human M-CSF [3] = molecular target: T1, human M-CSF; experiment: MSD specificity profiling, coated protein, Camille at 100 nM
Procedure: (§3) For this specificity profiling test the different proteins and controls were coated on two 384-well MSD plates with a concentration of 1 μg/ml at 4° C. over night. Plates were blocked with BSA and washed three times with PBS with 0.05% (v/v) Tween 20. Antibody samples were diluted to 100 nM and 10 nM in assay buffer (PBS with 0.5% (w/v) BSA, 0.05% (v/v) Tween 20). […] Samples and controls were incubated for three hours at room temperature. The plates were washed three times and 30 μl detection antibody (ECL-labeled anti-human Fab) were added per well and incubated for 1 h. After washing, MSD Read Buffer T with surfactant was added and electrochemiluminescence signals were detected using a Sector Imager 6000 (Meso Scale Discovery, Gaithersburg, Md., USA).

Serum albumin (human) = Serum albumin (human) (human, UniProt P02768 25-609); experiment: as above
Procedure: as §3

Transferrin (bovine) = Transferrin (bovine) (bovine, UniProt Q29443 20-704); experiment: as above
Chain of Transferrin (bovine) (Q29443 20-704 limits assumed): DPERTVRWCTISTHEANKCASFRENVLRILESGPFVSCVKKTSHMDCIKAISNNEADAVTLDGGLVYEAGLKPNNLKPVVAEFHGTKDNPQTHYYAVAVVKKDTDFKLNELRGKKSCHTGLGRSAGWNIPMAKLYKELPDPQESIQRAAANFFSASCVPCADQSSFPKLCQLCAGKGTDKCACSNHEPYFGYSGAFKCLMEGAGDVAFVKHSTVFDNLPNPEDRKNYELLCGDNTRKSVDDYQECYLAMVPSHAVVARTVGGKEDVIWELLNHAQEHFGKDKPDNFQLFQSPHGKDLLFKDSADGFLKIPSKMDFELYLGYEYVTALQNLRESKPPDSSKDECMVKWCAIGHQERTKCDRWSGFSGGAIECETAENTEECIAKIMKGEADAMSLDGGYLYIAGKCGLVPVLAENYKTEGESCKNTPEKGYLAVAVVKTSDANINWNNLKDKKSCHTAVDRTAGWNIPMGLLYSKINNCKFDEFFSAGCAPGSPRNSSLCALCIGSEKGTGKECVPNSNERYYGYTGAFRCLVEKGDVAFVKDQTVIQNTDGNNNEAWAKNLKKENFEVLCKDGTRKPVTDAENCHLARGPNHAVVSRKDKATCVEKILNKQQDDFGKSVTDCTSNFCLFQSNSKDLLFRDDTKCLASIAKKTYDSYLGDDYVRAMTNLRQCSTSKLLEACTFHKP
Procedure: as §3

Antitrypsin (human) = Antitrypsin (human) (human, UniProt P01009 25-418); experiment: as above
Chain of Antitrypsin (human) (P01009 25-418 limits assumed): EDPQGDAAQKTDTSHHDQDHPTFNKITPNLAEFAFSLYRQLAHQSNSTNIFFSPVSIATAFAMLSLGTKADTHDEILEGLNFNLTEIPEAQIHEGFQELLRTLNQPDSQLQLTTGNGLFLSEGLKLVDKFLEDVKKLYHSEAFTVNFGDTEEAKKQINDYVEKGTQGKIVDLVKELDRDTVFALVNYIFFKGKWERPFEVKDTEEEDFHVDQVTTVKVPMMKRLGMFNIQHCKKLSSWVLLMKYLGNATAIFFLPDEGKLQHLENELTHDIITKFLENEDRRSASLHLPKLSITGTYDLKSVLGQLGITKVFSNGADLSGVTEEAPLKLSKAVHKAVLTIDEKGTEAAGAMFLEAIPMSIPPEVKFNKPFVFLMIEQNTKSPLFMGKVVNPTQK
Procedure: as §3

Cytokine 1 (human) = Cytokine 1 (human) (human); experiment: as above
Procedure: as §3

Cytokine 2 (human) = Cytokine 2 (human) (human); experiment: as above
Procedure: as §3

[4] = molecular target: Cell surface receptor 2 (human) (human); experiment: as above
Procedure: as §3

[5] = molecular target: Cell surface receptor 3 (human) (human); experiment: as above
Procedure: as §3

Ovalbumin (chicken) = molecular target: T3, Ovalbumin (chicken) (chicken, UniProt P01012 2-386); experiment: as above
T3 sequence (looked up): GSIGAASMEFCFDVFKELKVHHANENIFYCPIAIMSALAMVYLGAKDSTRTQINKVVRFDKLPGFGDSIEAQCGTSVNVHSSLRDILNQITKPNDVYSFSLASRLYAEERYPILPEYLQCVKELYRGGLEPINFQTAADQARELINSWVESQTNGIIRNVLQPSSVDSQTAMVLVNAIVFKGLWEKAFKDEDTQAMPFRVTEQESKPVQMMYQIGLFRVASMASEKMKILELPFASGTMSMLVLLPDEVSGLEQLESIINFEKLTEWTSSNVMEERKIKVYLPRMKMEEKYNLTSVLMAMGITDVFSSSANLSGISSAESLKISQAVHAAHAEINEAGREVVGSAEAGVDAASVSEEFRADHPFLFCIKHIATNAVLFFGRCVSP
Procedure: as §3

Trypsinogen (cow) = molecular target: T4, Trypsinogen (cow) (cow, UniProt P00760 18-246); experiment: as above
T4 sequence (looked up): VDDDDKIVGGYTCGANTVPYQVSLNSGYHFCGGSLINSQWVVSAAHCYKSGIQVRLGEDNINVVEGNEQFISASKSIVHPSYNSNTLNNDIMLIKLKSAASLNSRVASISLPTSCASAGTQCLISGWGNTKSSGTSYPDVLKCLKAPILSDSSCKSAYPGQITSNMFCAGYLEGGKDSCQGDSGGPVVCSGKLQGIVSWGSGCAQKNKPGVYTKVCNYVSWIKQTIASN
Procedure: as §3

RNase A (cow) = molecular target: T5, RNase A (cow) (cow, UniProt P61823 27-150); experiment: as above
T5 sequence (looked up): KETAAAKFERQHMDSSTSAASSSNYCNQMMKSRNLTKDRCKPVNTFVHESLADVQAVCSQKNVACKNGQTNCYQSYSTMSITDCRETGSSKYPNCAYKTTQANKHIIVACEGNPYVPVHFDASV
Procedure: as §3

[6] = molecular target: T6, Recombinant human sgM-CSF (human, UniProt P09603 33-255); experiment: Table 12 summary, criterion Binding, Human M-CSF; assay and antibody format not named there
T6 construct: also called human secreted glycosylated M-CSF; Human M-CSF
T6 sequence: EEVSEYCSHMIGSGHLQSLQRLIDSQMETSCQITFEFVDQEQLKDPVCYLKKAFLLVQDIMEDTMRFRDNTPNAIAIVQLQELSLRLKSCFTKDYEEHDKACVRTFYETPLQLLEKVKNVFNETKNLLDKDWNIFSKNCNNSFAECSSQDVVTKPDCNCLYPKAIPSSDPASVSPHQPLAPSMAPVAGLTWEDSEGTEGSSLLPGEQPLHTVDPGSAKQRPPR
Procedure: The monovalent affinity of the antibodies of the present disclosure was determined by soluble equilibrium titration (Haenel et al. (2005) Anal Biochem 339, 182-4).

[7] = molecular target: T6, Recombinant human sgM-CSF; experiment: Receptor binding assay, inhibition of human M-CSF binding to M-CSF receptor (competitor CSF1-R-Fc); Table 12 summary

B1: Camille (format not stated) (antibody, V domains shown)
VH: QVQLQQSGPGLVKPSQTLSLTCAISGESVSTSSAAWNWIRQSPSRGLEWLGRTYYRSKWKHEYAVSVKSRITINPDTSKNQFSLQLNSVTPEDTAVYYCARDRYYYSAFDYWGQGTLVTVSS
VL: QSALTQPASVSGSPGQSITISCTGTSSDVGGYNSVSWYQQHPGKAPKLLIYAVSNRPSGVSNRFSGSKSGNTASLTISGLQAEDEADYYCASYDERFTRVFGGGTKLTVLG
notes: also called Antibody Camille
For B1, the ELISA fluorescence units (human M-CSF [1]) was > 35000 units, the ELISA fluorescence units [2] was > 35000 units and the “signal normalized to reference antibody MOR03207” value (from here on “signal normalized”) (human M-CSF [3]) was 24 ratio. For the same binder, the “signal normalized” value (Serum albumin (human)) was 1 ratio, the “signal normalized” value (Transferrin (bovine)) was 1 ratio and the “signal normalized” value (Antitrypsin (human)) was 1 ratio. For the same binder, the “signal normalized” value (Cytokine 1 (human)) was 1 ratio, the “signal normalized” value (Cytokine 2 (human)) was 2 ratio and the “signal normalized” value [4] was 1 ratio. For the same binder, the “signal normalized” value [5] was 1 ratio, the “signal normalized” value (Ovalbumin (chicken)) was 1 ratio and the “signal normalized” value (Trypsinogen (cow)) was 1 ratio. The “signal normalized” value (RNase A (cow)) was 1 ratio, the Kd [6] was 0.018 nM and the IC50 [7] was 0.004 nM.
